Values belong to the binder of their own block, whether it stands above or below them.
Experiments:
human Angiopoietin-2 [1] = target: T1, human Angiopoietin-2 (human, UniProt O15123 19-496); test: FACS: inhibition of Ang-2 binding to HEK293F/Tie2 cells
T1 construct: Mostly bought recombinant protein (R&D Systems 623-AM/CF, 623-AN; biotinylated BT623) or supernatant of transfected 293F cells; also called Ang-2; rhAng-2
T1 sequence: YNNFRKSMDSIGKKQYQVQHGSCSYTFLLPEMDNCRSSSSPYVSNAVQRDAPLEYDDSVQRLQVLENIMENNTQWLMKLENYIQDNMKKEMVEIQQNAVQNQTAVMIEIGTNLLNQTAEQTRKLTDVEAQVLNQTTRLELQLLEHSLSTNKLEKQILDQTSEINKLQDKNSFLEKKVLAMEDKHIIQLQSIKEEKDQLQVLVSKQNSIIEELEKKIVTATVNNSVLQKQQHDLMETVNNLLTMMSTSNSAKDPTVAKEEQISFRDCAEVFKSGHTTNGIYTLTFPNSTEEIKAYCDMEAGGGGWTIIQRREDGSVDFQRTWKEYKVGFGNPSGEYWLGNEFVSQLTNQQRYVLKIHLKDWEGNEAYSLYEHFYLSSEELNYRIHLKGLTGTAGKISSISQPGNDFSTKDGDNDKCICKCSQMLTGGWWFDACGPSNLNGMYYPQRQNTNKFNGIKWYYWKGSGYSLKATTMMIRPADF
Protocol: Cell suspension of 4 million cells/mL in FACS Buffer were prepared, and then aliquoted to a 96-well polypropylene plate with 50 ul per well. […] Cells were washed by centrifuging the plate at 1,200 rpm for 5 minutes, removing the supernatant by aspirating, and resuspending the cells with 200 ul per well of FACS Buffer. Washing procedures were repeated twice. The cells were then suspended with 100 ul of mouse Anti-6×-Histidine antibody diluted to 2 ug/ml in FACS Buffer, and incubated at room temperature for 30 minutes. After washing, the cells were suspended in 100 ul of PE-conjugated goat anti-mouse-IgG, which was diluted 1:100 in FACS Buffer, for incubation at room temperature for 30 minutes. The volume of the samples were brought to 300 ul with FACS Buffer, and measured with FACS Calibur.

human Angiopoietin-2 [2] = target: T1, human Angiopoietin-2; test: high resolution Biacore, mAb immobilized, 1st experiment
Protocol: The mAb was then immobilized on flow cells 1-3 (CM5 Biacore chip) using routine amine coupling, leaving flow cell 4 as the reference flow cell.
The antibody surfaces were regenerated with a 6-second pulse of 15 mM NaOH after each injection cycle.
The sample injections alternated with three blank injection cycles. Each surface was regenerated with a 6-second pulse of 15 mM NaOH after each long off-rate injection cycle.

human Angiopoietin-2 [3] = target: T1, human Angiopoietin-2; test: KinExA, KD-controlled titration; KinExA, KD-controlled titration, 5 days at ~24 C
Protocol: For this purpose, a KinExA 3000 instrument was utilized. […] The beads were then centrifuged and washed once with blocking buffer (1×PBS, 10 mg/ml BSA), centrifuged again, and then incubated in blocking buffer for one hour at 24° C. After blocking, the beads were diluted in approximately 30 mL of HBS buffer (0.01 M Hepes, 0.15 M NaCl, pH 7.4) in a standard KinExA bead reservoir vial and placed on the instrument.
The KinExA instrument method used for the analysis of these solutions consisted of a bead packing step in which the PMMA beads were packed into a glass capillary, and the equilibrated solutions were flowed through the bead column at 0.25 mL/min for 6 min (1.5 mL) in duplicate. […] The fluorescence emission from the bead pack was measured at 670 nm with excitation at 620 nm. The resulting fluorescence measurements were converted into “% free nab binding site” versus total antigen concentration using the accompanying KinExA software package (version 1.0.3, Sapidyne, Inc.). The resulting KD-controlled titration curve was fit with the KinExA software to a 1:1 equilibrium isotherm with a drift correction factor included.

human Angiopoietin-2 [4] = target: T1, human Angiopoietin-2; test: competition ELISA: binding of recombinant human Ang-2 to coated human Tie2/Fc, mAb 3.19.3 titrated, bound Ang-2 detected with polyclonal anti-Ang-2
Protocol: For this purpose, an ELISA plate was coated with 4 μg/ml of hTie2/Fc (R&D Systems, Inc.) at 100 μl/well, and the wells were blocked as routine at 4° C. overnight.
Each concentration of the mAb was tested in triplicate. […] OD650 was determined 30 min after the HRP substrate was added.

human Angiopoietin-1 = target: T2, human Angiopoietin-1 (human, UniProt Q15389 20-498, limits assumed); test: Biacore, mAb captured
T2 construct: Bought recombinant protein (R&D Systems 293-AN-025/CF) or supernatant of transfected 293F cells; also called Ang-1; recombinant Ang-1
T2 sequence: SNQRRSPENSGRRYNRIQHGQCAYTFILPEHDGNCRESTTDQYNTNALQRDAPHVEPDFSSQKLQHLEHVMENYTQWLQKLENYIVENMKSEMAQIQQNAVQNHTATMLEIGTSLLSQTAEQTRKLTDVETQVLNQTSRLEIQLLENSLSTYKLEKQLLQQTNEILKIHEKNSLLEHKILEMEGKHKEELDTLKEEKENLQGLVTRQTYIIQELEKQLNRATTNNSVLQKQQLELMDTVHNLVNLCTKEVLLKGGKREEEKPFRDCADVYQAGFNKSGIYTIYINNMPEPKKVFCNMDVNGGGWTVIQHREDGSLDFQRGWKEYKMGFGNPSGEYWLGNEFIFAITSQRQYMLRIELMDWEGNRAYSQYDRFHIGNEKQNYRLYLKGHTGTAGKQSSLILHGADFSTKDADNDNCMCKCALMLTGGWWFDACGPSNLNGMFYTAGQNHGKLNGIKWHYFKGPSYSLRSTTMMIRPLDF

human Angiopoietin-2 [5] = target: T1, human Angiopoietin-2; test: Biacore; kd held constant (*); kd held constant in the fit, not measured
Protocol: The label-free surface plasmon resonance (SPR), or Biacore, was utilized to measure the antibody affinity to the antigen. For this purpose, a high-density goat anti-human antibody surface over a CM5 Biacore chip was prepared using routine amine coupling. All the purified mAbs were diluted to approximately 8 μg/ml in HBS-P running buffer containing 100 μg/ml BSA and 10 mg/mL carboxymethyldextran. Each mAb was captured on a separate surface using a 42-second contact time, and a 5-minute wash for stabilization of the mAb baseline.
Data were fit globally to a 1:1 interaction model to determine the binding kinetics.

human Angiopoietin-2 [6] = target: T1, human Angiopoietin-2; test: Biacore, mAb immobilized, 8 h dissociation

B1: mAb 3.19.3 (antibody, V domains shown)
VH: QVQLVESGGGVVQPGRSLRLSCAASGFTFTNYGMHWGRQAPGKGLEWVAVISHDGNNKYYVDSVKGRFTISRDNSKNTLYLQMNSLRAEDTAVYYCAREGIDFWSGLNWFDPWGQGTLVTVSS
VL: EIVLTQSPGTLSLSPGERATLSCRASQSITGSYLAWYQQKPGQAPRLLICGASSWATGIPDRFSGSGSGTDFTLTISRLEPEDFAVYYCQQYSSSPITFGQGTRLEIKR
notes: Human hybridoma IgG (XenoMouse); also called x3.19
EC50 (human Angiopoietin-2 [1]): 0.731 nM
Kd (human Angiopoietin-2 [2]): 5.3 pM
kon (human Angiopoietin-2 [2]): 189000 M⁻¹ s⁻¹
Kd (human Angiopoietin-2 [3]): 0.0864 nM
IC50 (read off the curve) (human Angiopoietin-2 [4]): ~0.8 µg/mL

B4: mAb 5.35.1 (antibody, V domains shown)
VH: EVQLVESGGGVVRPGGSLRLSCTTSGFTFDDYGMSWVRQAPGKGLEWVSGINWNGGSTVYADSVKGRFTISRDSAKNSLYLQMNSLRAEDTALYHCARNKQWLWYFDLWGRGTLVTVSS
VL: EIVMTQSPATLSVSPGERATLSCRASQSVSSNLAWYQQKPGQAPRLLIYGASTRATGIPARFSGSGSGTEFTLTISSLQSEDFAVYYCEQYNNWPLTFGGGTKVEIKR
notes: Human hybridoma IgG (XenoMouse); also called x5.35
Kd (human Angiopoietin-2 [6]): 3.31 pM
koff (human Angiopoietin-2 [6]): 1.87e-06 s⁻¹
kon (human Angiopoietin-2 [6]): 564000 M⁻¹ s⁻¹

Results, then the binder that gave them:

binding result (human Angiopoietin-1): no binding (tested: 87.4 nM Ang-1)
B2: mAb 3.3.2 (antibody, V domains shown)
VH: EVQLVESGGGLVQPGGSLRLSCAVSGFTFSSYWMSWVRQAPGKGLEWVANIKQDGSEKYYVDSVKGRFTISRDNAKNSLYLQMNSLRAEDTAVYYCARDQGIAVAGPFDYWGQGTLVTVSS
VL: EIVMTQSPATLSVSPGERATLSCRASQTVSSDLAWYQQKPGQAPRLLIYGASIRATGIPARFSGSGSGTEFTLTISSLQSEDFAVYSCQQYYNWWTFGQGTKVEIKR
notes: Human hybridoma IgG (XenoMouse); also called 3.3.1; x3.3

koff (human Angiopoietin-2 [5]): ≤ 1e-05 s⁻¹
B3: mAb 5.52.1 (antibody, V domains shown)
VH: QVQLVESGGGVVQPGRSLRLSCAASGFTFSSYGMHWVRQAPGKGLEWVAVRWYDESNKYYADSVKGRFTISRDNSKNTLYLQMNSLRAEDTAVYYCARDPFETGTTFDYWGQGTLVTVSS
VL: DIQMTQSPSSVSASVGDRVTITCRASQGISSWLAWYQQKPGKAPKLLIYAVSSLESGVPSRFSGSGSGTDFTLTISSLQPEDFATYYCQQALTFGGGTKVEIKR
notes: Human hybridoma IgG (XenoMouse); the line 5.52 has entries of its own (347, 349; light chain L2) that differ from the clone 5.52.1 (L5); also called x5.52
